Sequences and labels used below:
B1: glmS ribozyme (parent)
chain: AUAAAAGCGCCAGAACUACAGAAAUGUAGUUGACGAGGAGGAGGUUUAUCGAAUUUUCGGCGGAUGCCUCCAAA

± gives the standard error. Fewer inactive variants are shown than the library holds.

In one data set the parent is B1. Nature of the data set: self-cleavage kobs at 10000 uM GlcN6P; higher = faster cleavage; RNA array. The conditions noted are these: with glucosamine-6-phosphate. In a few lines:
(§1)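 kcat and KM were obtained from weighted Michaelis–Menten fits across concentrations of kobs values. Those came from one- or two-exponential decay fits to per-tile medians normalised to baseline and to non-cleaving reference variants. The variants were barcoded ribozymes transcribed in situ by E. coli RNA polymerase on sequenced MiSeq chips and tracked through a hybridised Cy3 probe at 37 °C, with 40 μM to 10 mM glucosamine-6-phosphate in HEPES/KCl/Mg(OAc)2 buffer flowed in.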
In the case of G37U G60U U69C, the “self-cleavage kobs at 10000 uM GlcN6P” value was less than 1e-05 s⁻¹.
With C11A A12U A14C, the “self-cleavage kobs at 10000 uM GlcN6P” value was found to be 8.7e-05 ± 1.9e-05 s⁻¹.
Regarding C11U G29A C70A, the “self-cleavage kobs at 10000 uM GlcN6P” value turned out to be 5.6e-05 ± 1.8e-05 s⁻¹.
The same measure, in the same setting: the same measure for C11A C16A G66C C70G: 6.24e-05 ± 2.5e-05 s⁻¹; for A6U G38C U47A A48G G66A U69G: less than 1e-05 s⁻¹; for C34U U45G C70A: less than 1e-05 s⁻¹.
Take C34A A36C G60A: the “self-cleavage kobs at 10000 uM GlcN6P” value was less than 1e-05 s⁻¹.
Regarding C16U G35C C58A, the “self-cleavage kobs at 10000 uM GlcN6P” value was less than 1e-05 s⁻¹.
Same read-out and setting: the same measure for U30A G32U C67A: 0.000213 ± 6e-05 s⁻¹.
As for A33G G40U A52G C58A, the “self-cleavage kobs at 10000 uM GlcN6P” value was less than 1e-05 s⁻¹.
Still for that read-out and setting: the same measure for A12U A15C C16U: 0.0012 ± 0.00023 s⁻¹; for G9A C10G U69G: 0.000596 ± 0.00021 s⁻¹; for G38A A39U U54A: less than 1e-05 s⁻¹.
C34A C67G C70A: the “self-cleavage kobs at 10000 uM GlcN6P” value was less than 1e-05 s⁻¹.
A36U C68G C71U: the “self-cleavage kobs at 10000 uM GlcN6P” value is 5.72e-05 ± 2.3e-05 s⁻¹.
Turning to G13C A15C U49C, the “self-cleavage kobs at 10000 uM GlcN6P” value was less than 1e-05 s⁻¹.
Regarding G9U U30A C71U, the “self-cleavage kobs at 10000 uM GlcN6P” value was less than 1e-05 s⁻¹.
In the case of U31A U46G U56G, the “self-cleavage kobs at 10000 uM GlcN6P” value is 0.00127 ± 0.00022 s⁻¹.
Regarding A33C G43U U49C C68U, the “self-cleavage kobs at 10000 uM GlcN6P” value was less than 1e-05 s⁻¹.
Take G9U A15U G37U: the “self-cleavage kobs at 10000 uM GlcN6P” value is less than 1e-05 s⁻¹.
As to A36G A48C C68A, the “self-cleavage kobs at 10000 uM GlcN6P” value was less than 1e-05 s⁻¹.
Turning to C50U G59U A64U, the “self-cleavage kobs at 10000 uM GlcN6P” value was less than 1e-05 s⁻¹.
Consider A12U G32U U54C, for which the “self-cleavage kobs at 10000 uM GlcN6P” value came to 0.000319 ± 5.4e-05 s⁻¹.
In the case of G38A A42U C50G C67G, the “self-cleavage kobs at 10000 uM GlcN6P” value was determined as 0.000231 ± 6.8e-05 s⁻¹.
On to G32C G66A, for which the “self-cleavage kobs at 10000 uM GlcN6P” value stood at 7.35e-05 ± 1.4e-05 s⁻¹.
As for A39G C67A C68A, the “self-cleavage kobs at 10000 uM GlcN6P” value was 6.69e-05 ± 1.7e-05 s⁻¹.
Consider C16A U49G, for which the “self-cleavage kobs at 10000 uM GlcN6P” value turned out to be 2.8e-05 ± 1.1e-05 s⁻¹.
Turning to U30A U47G A53G, the “self-cleavage kobs at 10000 uM GlcN6P” value is 0.000616 ± 0.0001 s⁻¹.
A15G A42U U69A: the “self-cleavage kobs at 10000 uM GlcN6P” value was determined as 0.00624 ± 0.0018 s⁻¹.
For the variant G40U U45A C70G, the “self-cleavage kobs at 10000 uM GlcN6P” value amounted to 0.000163 ± 3.4e-05 s⁻¹.
In the case of A12C G29C A39U, the “self-cleavage kobs at 10000 uM GlcN6P” value is 0.000876 ± 0.0002 s⁻¹.
Consider A5U A33C, for which the “self-cleavage kobs at 10000 uM GlcN6P” value amounted to 0.000263 ± 6.3e-05 s⁻¹.
G38U G41U A48U A52G U56C G60A C68G C71U: the “self-cleavage kobs at 10000 uM GlcN6P” value was less than 1e-05 s⁻¹.
As to G40U U47G G51C U65A, the “self-cleavage kobs at 10000 uM GlcN6P” value was less than 1e-05 s⁻¹.
As for U30C G51A C67G, the “self-cleavage kobs at 10000 uM GlcN6P” value was less than 1e-05 s⁻¹.
Consider C34U U49C C50G C61U C68G C71G, for which the “self-cleavage kobs at 10000 uM GlcN6P” value was determined as 0.000303 ± 7.9e-05 s⁻¹.
On the same count and under the same terms, the same measure for A33U C50G C61A C70U: 6e-05 ± 1.8e-05 s⁻¹; for A12U A14C U31C: 0.00145 ± 0.00047 s⁻¹; for C34U A36C: less than 1e-05 s⁻¹.
Regarding G7C C11A G13A, the “self-cleavage kobs at 10000 uM GlcN6P” value is less than 1e-05 s⁻¹.
Regarding A15G A52G G66A C68U, the “self-cleavage kobs at 10000 uM GlcN6P” value stood at 0.000149 ± 2.8e-05 s⁻¹.

The next data set covers variants of B1. The data set is described as follows: self-cleavage kobs at 2500 uM GlcN6P; higher = faster cleavage; RNA array. The following applies: with glucosamine-6-phosphate. The essentials:
as §1
C10G U46A U56G: the “self-cleavage kobs at 2500 uM GlcN6P” value is less than 1e-05 s⁻¹.
Turning to A12G G38C U45A C67A, the “self-cleavage kobs at 2500 uM GlcN6P” value was less than 1e-05 s⁻¹.
Consider C11U G29A C70A, for which the “self-cleavage kobs at 2500 uM GlcN6P” value was 0.000404 ± 0.00014 s⁻¹.
On the same count and under the same terms, the same measure for A6U G38C U47A A48G G66A U69G: less than 1e-05 s⁻¹; for C34U U45G C70A: less than 1e-05 s⁻¹; for C34A G41A C50G: less than 1e-05 s⁻¹.
On the same count and under the same terms, next, A36U U45G C61G: less than 1e-05 s⁻¹; G37U U45G U65G: less than 1e-05 s⁻¹; C34U C67G C68G: 0.000147 ± 3.9e-05 s⁻¹.
As for C8A G13A U56C, the “self-cleavage kobs at 2500 uM GlcN6P” value was less than 1e-05 s⁻¹.
Same read-out and setting: the same measure for G9C A15U A42U: less than 1e-05 s⁻¹.
In the case of U46G U65A C67G, the “self-cleavage kobs at 2500 uM GlcN6P” value came out at 0.000131 ± 2.5e-05 s⁻¹.
With A36U G43C A53C C71G, the “self-cleavage kobs at 2500 uM GlcN6P” value was less than 1e-05 s⁻¹.
Turning to A14G A15U U31G G43U U45A, the “self-cleavage kobs at 2500 uM GlcN6P” value is less than 1e-05 s⁻¹.
G40U A64G C71A: the “self-cleavage kobs at 2500 uM GlcN6P” value is 0.00288 ± 0.0008 s⁻¹.
Consider U47A G62C C68G C71G, for which the “self-cleavage kobs at 2500 uM GlcN6P” value turned out to be 0.000178 ± 4.9e-05 s⁻¹.
With C10U A14C G66C, the “self-cleavage kobs at 2500 uM GlcN6P” value was less than 1e-05 s⁻¹.
Turning to G9C G41A C70U, the “self-cleavage kobs at 2500 uM GlcN6P” value was less than 1e-05 s⁻¹.
In the case of C50G G60U C61G U65A, the “self-cleavage kobs at 2500 uM GlcN6P” value turned out to be 9.15e-05 ± 3e-05 s⁻¹.
With G9A G40U G62U A64U, the “self-cleavage kobs at 2500 uM GlcN6P” value was less than 1e-05 s⁻¹.
On the same count and under the same terms, the same measure for G35C A42U U56C C68G: less than 1e-05 s⁻¹; for A15G G38U G60A: less than 1e-05 s⁻¹.
Take A6C U55G G59U C61A A64C: the “self-cleavage kobs at 2500 uM GlcN6P” value is less than 1e-05 s⁻¹.
As for G7C G51U G66A C67U C68U, the “self-cleavage kobs at 2500 uM GlcN6P” value was less than 1e-05 s⁻¹.
In the case of G7A G41C C67U, the “self-cleavage kobs at 2500 uM GlcN6P” value was less than 1e-05 s⁻¹.
For the variant U45G U49A U55C, the “self-cleavage kobs at 2500 uM GlcN6P” value was less than 1e-05 s⁻¹.
Consider G9U G35A G59A C71U, for which the “self-cleavage kobs at 2500 uM GlcN6P” value is less than 1e-05 s⁻¹.
For the variant G7A A36U U46G A48C C70U C71G, the “self-cleavage kobs at 2500 uM GlcN6P” value was less than 1e-05 s⁻¹.
As to A42C C58A G60U, the “self-cleavage kobs at 2500 uM GlcN6P” value is less than 1e-05 s⁻¹.
The same measure, in the same setting: next, A12G U30C C58A: 0.000105 ± 3.1e-05 s⁻¹.
Take G29A A42C A64U: the “self-cleavage kobs at 2500 uM GlcN6P” value was less than 1e-05 s⁻¹.
The same measure, in the same setting: next, C16A U30A U65A: 5.07e-05 ± 1.8e-05 s⁻¹; A6U A53U G63U: less than 1e-05 s⁻¹.
G38C C50A U65A: the “self-cleavage kobs at 2500 uM GlcN6P” value was less than 1e-05 s⁻¹.
Take U54G U57C: the “self-cleavage kobs at 2500 uM GlcN6P” value amounted to 0.000126 ± 2.3e-05 s⁻¹.
As for G29U G32U A42G C71A, the “self-cleavage kobs at 2500 uM GlcN6P” value was 4.56e-05 ± 1.7e-05 s⁻¹.
As to C10A A12U G37U U45A, the “self-cleavage kobs at 2500 uM GlcN6P” value was less than 1e-05 s⁻¹.
Same read-out and setting: the same measure for G9C C11U G29C G59C: less than 1e-05 s⁻¹; for C11U G60U C68A: less than 1e-05 s⁻¹.
Regarding A14U C16A G63A, the “self-cleavage kobs at 2500 uM GlcN6P” value is less than 1e-05 s⁻¹.
The same measure, in the same setting: the same measure for G40U U47G G51C U65A: less than 1e-05 s⁻¹.
Same read-out and setting: the same measure for G9U G59U C70U: less than 1e-05 s⁻¹; for A15U C61U G62U: less than 1e-05 s⁻¹; for A15C U31G A53C: 0.000196 ± 3.5e-05 s⁻¹.

Source of the values: the supplement of paper PMC7125110.
